Assay results reported in article PMC11098961.

Target: PME-1 (UniProt Q9Y570)
Experiment: FLAG-PP2Ac immunoprecipitation, PME-1 blot
Settings: reference: wild type

binding against the reference (sites S225,T227) | binding against the reference (sites S285) | Substance
weaker | – | PP2Ac (from UniProt P67775) S225A/T227A
– | weaker | PP2Ac (from UniProt P67775) S285A
